Laboratory results taken from article PMC5575113, “Creating the Functional Single-Ring GroEL-GroES Chaperonin Systems via Modulating GroEL-GroES Interaction” (Scientific Reports, 2017).

B1: GroES (natural protein, E. coli, UniProt P0A6F9 1-97, looked up)
chain: MNIRPLHDRVIVKRKEVETKSAGGIVLTGSAAAKSTRGEVLAVGNGRILENGEVKPLDVKVGDIVIFNDGYGVKSEKIDNEEVLIMSESDILAIVEA
modifications: DyLight 650 NHS Ester amine reactive dye (labelled)
notes: GroES, E. coli; one heptameric ring; groES in pET3b; also called cochaperonin
B2: GroES (natural protein, E. coli, UniProt P0A6F9 1-97, looked up)
chain: B1 chain
modifications: DyLight 650 NHS ester on amines (for MST)
notes: GroES, E. coli, expressed from pET3b; heptamer; also called cochaperonin; wild type GroES

Assays:
[1] = molecular target: T1, GroEL^SR (GroEL R452A/E461A/S463A/V464A) (E. coli, UniProt P0A6F5 1-548, R452A | E461A | S463A | V464A); assay: MST; cochaperonin labelled with DyLight 650, unlabelled GroEL or GroEL^SR titrated (serial dilution of 15 samples), 30 min incubation; 50 mM TrisCl pH 7.5, 100 mM KCl, 10 mM MgCl2, 1 mM EDTA, 2 mM ADP, 0.5 mg/mL BSA; Monolith NT115, 80% LED, 40% IR-laser; settings: both partners purified
T1 construct: GroEL, E. coli, single-ring variant; groEL^SR in the pTrc vector; also called single-ring GroEL; source: dialysis against 30% methanol, FastQ column

[2] = molecular target: T2, GroEL (E. coli, UniProt P0A6F5 1-548); assay: MST; cochaperonin labelled with DyLight 650; unlabelled GroEL or GroEL^SR in a serial dilution of 15 samples; 50 mM TrisCl pH 7.5, 100 mM KCl, 10 mM MgCl2, 1 mM EDTA, 2 mM ADP, 0.5 mg/mL BSA; 30 min incubation; settings: both partners purified
T2 construct: GroEL, E. coli, expressed from pTrc; two heptameric rings (tetradecamer); also called chaperonin; double-ring GroEL; source: E. coli BL21(DE3), purified (methanol dialysis, FastQ column); copies: 14

Binder	Kd [1]	Kd [2]
B1	3.67 nM	
B2		3.83 ± 0.93 nM
